The record followed here is WO2019077951A1 (dated 2019).

In this assay the target is T1, full-length MUC1 (amino acid sequence of SEQ ID NO: 27) (human (human cervical cancer cell line …, UniProt P15941 24-1255, limits assumed)).
T1 construct: Full-length protein from cell extract on a Western blot membrane
Description: Western blotting. (In general: In western blotting, separated proteins are transferred to a membrane and probed.)

T1 sequence (P15941 other isoform, or with tags, fused parts or gaps limits assumed): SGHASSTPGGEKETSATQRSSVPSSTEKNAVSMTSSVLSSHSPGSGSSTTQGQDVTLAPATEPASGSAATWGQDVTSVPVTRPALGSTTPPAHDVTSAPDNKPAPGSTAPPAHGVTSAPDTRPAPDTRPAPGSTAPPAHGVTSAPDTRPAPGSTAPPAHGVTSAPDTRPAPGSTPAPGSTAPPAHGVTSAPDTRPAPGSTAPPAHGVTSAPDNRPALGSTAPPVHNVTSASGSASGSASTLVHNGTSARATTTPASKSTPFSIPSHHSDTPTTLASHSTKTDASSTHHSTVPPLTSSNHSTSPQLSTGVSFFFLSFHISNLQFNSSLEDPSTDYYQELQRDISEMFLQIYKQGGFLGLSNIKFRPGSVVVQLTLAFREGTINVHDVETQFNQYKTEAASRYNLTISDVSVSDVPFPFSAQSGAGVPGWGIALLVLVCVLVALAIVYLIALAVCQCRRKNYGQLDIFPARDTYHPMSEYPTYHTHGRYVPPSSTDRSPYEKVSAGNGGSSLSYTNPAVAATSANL

B1: anti-MUC1 monoclonal antibody (antibody, V domains shown)
VH: EVKLEESGGGLVQPGGSMKLSCVASGFSFSDYWMNWVRQSPDKGLEWISDIRLKSYNYATHYAESVKGRFTISRDDSKSGVYLQMNNLRAEDTGLYYCTFGNSFAYWGQGTLVTVSA
VL: QAVVTQESALTTSPGETVTLTCRSSTGAVTTSNYANWVQEKPDHLFTGLIGGTNNRAPGVPARFSGSLIGDKAALTITGAQTEDEAIYFCALWYSNHWVFGGGTKLTVLG
notes: also called MUC1 antibody
For the molecule B1, the binding result is on record as “binds”.
